This note sets out measurements from patent US20260274985A1 (MYTHIC THERAPEUTICS, published 2026).

Assay [1] addresses T1, Human TROP2 Protein, His Tag (Acro Biosystems) (human, UniProt P09758 27-274).
T1 construct: Bought protein; not shown: His tag
T1 sequence (looked up): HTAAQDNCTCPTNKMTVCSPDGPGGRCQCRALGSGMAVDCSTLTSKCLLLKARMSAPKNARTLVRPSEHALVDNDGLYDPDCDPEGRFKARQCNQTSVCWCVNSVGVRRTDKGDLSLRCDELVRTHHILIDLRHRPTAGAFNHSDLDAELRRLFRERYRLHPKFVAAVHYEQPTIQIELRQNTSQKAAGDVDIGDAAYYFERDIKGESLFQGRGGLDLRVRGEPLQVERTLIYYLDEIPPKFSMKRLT
The assay is described as follows: BLI (Octet), Ab on anti-human Fc sensor, 50 nM TROP2-His; 1 = pH dependent. As for the experimental part: After allowing for four days of protein expression, cell culture supernatants were collected, quantified by SDS-PAGE analysis (DNS), and the pH dependence of the variant was evaluated using biolayer interferometry (BLI) on an Octet RED 96e instrument. Briefly, cell culture supernatants were diluted based on qualitative expression level of the variant determined by visual examination of SDS-PAGE gels, 5 μL of cell culture supernatant was diluted into 195 μL of 1×PBST, pH 7.4 for high expressors, 25 μL of cell culture supernatant was diluted into 175 μL of 1×PBST, pH 7.4 for medium expressors and 100 μL of cell culture supernatant was diluted into 100 μL of 1×PBST, pH 7.4 for low expressors for loading onto the sensor tips. The resulting diluted supernatants were then captured on an anti-human Fc sensor (Forte Bio). A baseline was established using 1×PBST (50 mM Potassium Phosphate Buffer+150 mM NaCl+0.05% Tween 20) pH 7.4, and the sensor was associated with 50 nM of TROP2 (Human TROP2 Protein, His Tag, Acro Biosystems) in 1×PBST pH 7.4 for 120 sec to generate an association curve. In the dissociation phase, the antibody-antigen complex on the sensor was exposed to 1×PBST pH 7.4 or pH 5.4, for 300 sec. […]
In general terms: In BLI a coated tip is dipped into the sample, and binding shifts an interference pattern.

In assay [2] the target is T2, Human TROP2 Protein, His Tag (Acro Biosystems) (human, UniProt P09758 27-274).
T2 construct: not shown: His tag
T2 sequence (looked up): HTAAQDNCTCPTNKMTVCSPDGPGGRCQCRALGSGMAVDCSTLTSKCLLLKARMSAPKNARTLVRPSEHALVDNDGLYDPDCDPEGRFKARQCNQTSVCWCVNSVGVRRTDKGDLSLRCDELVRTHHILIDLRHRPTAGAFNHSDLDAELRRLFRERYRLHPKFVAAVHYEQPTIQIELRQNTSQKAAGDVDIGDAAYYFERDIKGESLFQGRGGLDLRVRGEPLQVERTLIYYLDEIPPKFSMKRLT
The assay is described as follows: Octet BLI, IgG on anti-human Fc sensor, 50 nM TROP2-His; 1 = pH dependent.

The target in assay [3] is T3, Human TROP2 Protein, His Tag (Acro Biosystems) (human, UniProt P09758 27-274).
T3 construct: not shown: His tag
T3 sequence (looked up): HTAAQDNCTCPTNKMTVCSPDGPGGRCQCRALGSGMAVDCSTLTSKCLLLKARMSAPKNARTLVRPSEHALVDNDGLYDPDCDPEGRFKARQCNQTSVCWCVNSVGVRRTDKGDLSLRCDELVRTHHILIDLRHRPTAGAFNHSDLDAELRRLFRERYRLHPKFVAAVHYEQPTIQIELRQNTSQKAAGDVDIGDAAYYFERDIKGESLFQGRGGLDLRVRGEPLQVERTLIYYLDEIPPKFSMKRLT
The assay is described as follows: BLI (Octet) [2/2].

Assay [4] deals with T2, Human TROP2 Protein, His Tag (Acro …). The assay can be described thus: BLI (Octet).
For assay [5] the target is unchanged. The assay can be described thus: Octet BLI, IgG on anti-human Fc sensor, 50 nM TROP2-His; 2 = No change vs parent.
In assay [6] the target is TROP2 on TROP2-positive NCI-H1975 cells (human) (UniProt P09758). The assay can be described thus: cell-based or functional assay. To be noted: scale: % greater cytotoxicity compared to WT datopotamab.
For assay [7], the target named is T4, Human TROP2 Protein, His Tag (Acro Biosystems) (human, UniProt P09758 27-274).
T4 construct: Bought antigen used at 50 nM in the Octet screen; also called TACSTD2; not shown: His tag
T4 sequence (looked up): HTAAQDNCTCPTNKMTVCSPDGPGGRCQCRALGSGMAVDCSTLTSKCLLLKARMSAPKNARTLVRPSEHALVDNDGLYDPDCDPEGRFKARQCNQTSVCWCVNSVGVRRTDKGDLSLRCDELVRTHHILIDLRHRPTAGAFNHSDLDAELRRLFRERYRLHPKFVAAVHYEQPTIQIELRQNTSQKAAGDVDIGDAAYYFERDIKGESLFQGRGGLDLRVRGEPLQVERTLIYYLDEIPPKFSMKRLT
The assay is described as follows: BLI (Octet) [1/2]. Summed up: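 Antibody variants from day-4 expression supernatants, diluted in 1×PBST pH 7.4 by expression level, captured on anti-human Fc tips. Association with 50 nM human TROP2-His in PBST pH 7.4 for 120 sec; dissociation in PBST pH 7.4 or pH 5.4 for 300 sec. Curves examined for koff at each pH versus parent antibody.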

The target of assay [8] is T4, Human TROP2 Protein, His Tag (Acro …). The assay is described as follows: Octet BLI, IgG on anti-human Fc sensor, 50 nM TROP2; 1 = pH dependent.

B1: MYT11616 (antibody, V domains shown)
VH: QVQLQQSGSELKKPGASVKVSCKASGYTFTNYGMNWVKQAPGQGLKWMGWINTYTGEPTYTDDFKGRFAFSLDTSVSTAYLQISSLKADDTAVYFCARGGFGSSYWYFDVWGQGSLVTVSS
VL: DIQLTQSPSSLSASVGDRVSITCKASQDVSIHVAWYQQKPGKAPKLLIYSASYRYTGVPDRFSGSGSGTDFTLTISSLQPEDFAVYYCQQHYITPLTFGAGTKVEIK
notes: Sacituzumab variant, His at LCV position 32 (L1 09)
For the molecule B1, the binding result in assay [1] is “binds”.

B2: MYT12317 (antibody, V domains shown)
VH: QVQLQQSGSELKKPGASVKVSCKASGYTFTNYGMNWVKQAPGQGLKWMGWINTYTGEPTYTDHFHGRFAFSLDTSVSTAYLQISSLKADDTAVYFCARGGFGSSYWYFDVWGQGSLVTVSS
VL: DIQLTQSPSSLSASVGDRVSITCKASQDVSIAVAWYQQKPGKAPKLLIYSASYRYTGVPDRFSGSGSGTDFTLTISSLQPEDFAVYYCQQHYITPLTFGAGTKVEIK
notes: sacituzumab VH 63, 65 -> H
Take B2: in assay [2], the binding result was “binds”.

B3: MYT11619 (antibody, V domains shown)
VH: QVQLQQSGSELKKPGASVKVSCKASGYTFTNYGMNWVKQAPGQGLKWMGWINTYTGEPTYTDDFKGRFAFSLDTSVSTAYLQISSLKADDTAVYFCARGGFGSSYWYFDVWGQGSLVTVSS
VL: DIQLTQSPSSLSASVGDRVSITCKASQDVSIAVAWYQQKPGKAPKLLIYHASYRYTGVPDRFSGSGSGTDFTLTISSLQPEDFAVYYCQQHYITPLTFGAGTKVEIK
notes: Sacituzumab variant, His at LCV position 50 (L2 01)
B3: the binding result in assay [1] is “binds”.

B4: MYT13257 (antibody, V domains shown)
VH: QVQLVQSGAEVKKPGASVKVSCKASGYTFTTAGMQWVRQAPGQGLEWMGWINTHSGVPKYAEDFKGRVTISADTSTSTAYLQLSSLKSEDTAVYYCAHSGFGSSYWYFDVWGQGTLVTVSS
VL: DIQMTQSPSSLSASVGDRVTITCKASQDHSTAVAWYQQKPGKAPKLLIYSASYRYTGVPSRFSGSGSGTDFTLTISSLQPEDFAVYYCQQHYITPLTFGQGTKLEIK
notes: Full-length IgG from Expi293 supernatant; also called datopotamab heavy chain and light chain pairing variant
Turning to B4, the binding result in assay [3] is “binds”.

B5: MYT12388 (antibody, V domains shown)
VH: QVQLVQSGAEVKKPGASVKVSCKASGYTFTTAGMQWVRQAPGQGLEWMGWINTHSGVPKYAEDFKGRVTISADTSTSTAYLQLSSLKSEDTAVYYCARSGFGSSYWYFDVWGQGTLVTVSS
VL: DIQMTQSPSSLSASVGDRVTITCKASQHVSTAVAWYQQKPGKAPKLLIYSHSYRYTGVPSRFSGSGSGTDFTLTISSLQPEDFAVYYCQQHYITPLTFGQGTKLEIK
notes: datopotamab VL 28, 51 substituted
Regarding B5, the binding result in assay [4] is “binds”.

B6: MYT12296 (antibody, V domains shown)
VH: QVQLQQSGSELKKPGASVKVSCKASGYTFTNHGMNWVKQAPGQGLKWMGWINTYTGEPTYTHDFKGRFAFSLDTSVSTAYLQISSLKADDTAVYFCARGGFGSSYWYFDVWGQGSLVTVSS
VL: DIQLTQSPSSLSASVGDRVSITCKASQDVSIAVAWYQQKPGKAPKLLIYSASYRYTGVPDRFSGSGSGTDFTLTISSLQPEDFAVYYCQQHYITPLTFGAGTKVEIK
notes: sacituzumab VH 32, 62 -> H
For the molecule B6, the binding result in assay [5] was “binds”.

B7: MYT11741 (antibody, V domains shown)
VH: QVQLQESGPGLVKPSETLSLTCTVSGGSISSYGVHWIRQPPGKGLEWIGVIWTSGVTDYNSALMGRVTISVDTSKNQFSLKLSSVTAADTAVYYCARDGDYDRYTHDYWGQGTLVTVSS
VL: DIVMTQSPDSLAVSLGERATINCRASKSVSTSGYSYMHWYQQKPGQPPKLLIYLASNLESGVPDRFSGSGSGTDFTLTISSLQAEDVAVYYCQHSRELPYTFGQGTKLEIK
Turning to B7, in assay [6], the cytotoxicity on TROP2-positive NCI-H1975 cells (antibody complexed to secondary antibody-MMAF, cell titer glow assay) came out at 30. The binding result in assay [7] is given as “binds”.

B8: MYT11773 (antibody, V domains shown)
VH: QVQLQESGPGLVKPSETLSLTCTVSGGSISSYGVHWIRQPPGKGLEWIGVIWTSGVTDYNSALMGRVTISVDTSKNQFSLKLSSVTAADTAVYYCARDGDYDRYTMDYWGQGTLVTVSS
VL: DIVMTQSPDSLAVSLGERATINCRASKSVSTSGYSYMHWYQQKPGQPPKLLIYLASNLESGVPDRFSGSGSGTDFTLTISSLQAEDVAVYYCQHSRELPHTFGQGTKLEIK
notes: hu7E6SVG variant, His at LCV position 100 (L3 08); screened as IgG in Expi293 supernatant
As for B8, in assay [8], the binding result is recorded as “binds”.
